Source: the Human Domainome abundance scans (Beltran et al. 2025)
± gives the uncertainty stated by the source.

B1: Pituitary-specific positive transcription factor 1, residues 130 to 198; numbered along this chain, P28069 (parent)
chain: RELEKFANEFKVRRIKLGYTQTNVGEALAAVHGSEFSQTTICRFENLQLSFKNACKLKAILSKWLEEAE

Variants of: B1
Experiment: abundance fitness (aPCA) (normalised: wild type 0, dead -1); higher = more abundant; growth selection in yeast, the domain comes from the species named
Details: Homo sapiens
Work on E35Q yielded an abundance fitness of -0.059 ± 0.15.
E35F showed an abundance fitness of -0.262 ± 0.1.
With A68S the abundance fitness was -0.518 ± 0.15.
Variant A68H has an abundance fitness of -0.271 ± 0.1.
A68V showed an abundance fitness of -0.071 ± 0.071.
Work on I41T yielded an abundance fitness of -0.892 ± 0.39.
I41S showed an abundance fitness of -0.866 ± 0.15.
Work on E2N yielded an abundance fitness of -0.518 ± 0.19.
E2S showed an abundance fitness of -0.443 ± 0.069.
E2W gave an abundance fitness of -0.541 ± 0.094.
Work on E45M yielded an abundance fitness of -0.893 ± 0.31.
For E45V, the abundance fitness was -0.809 ± 0.15.
With K52W the abundance fitness was -0.408 ± 0.11.
K52P showed an abundance fitness of -0.077 ± 0.093.
K52N showed an abundance fitness of -0.024 ± 0.058.
In the case of F6G, the abundance fitness is reported as -0.688 ± 0.053.
For F6Q, the abundance fitness was -0.916 ± 0.13.
In the case of F6E, the abundance fitness is reported as -0.791 ± 0.14.
Work on V12Y yielded an abundance fitness of -0.295 ± 0.16.
In the case of V12H, the abundance fitness is reported as 0.095 ± 0.12.
With V12W the abundance fitness was -0.56 ± 0.22.
Work on V12F yielded an abundance fitness of -0.318 ± 0.15.
With I60L the abundance fitness was -0.135 ± 0.053.
I60N showed an abundance fitness of -0.357 ± 0.14.
For I60G, the abundance fitness was -0.495 ± 0.091.
In the case of I60K, the abundance fitness is reported as -0.262 ± 0.1.
In the case of Q21G, the abundance fitness is reported as -1.07 ± 0.19.
Q21F gave an abundance fitness of -0.932 ± 0.28.
Variant Q21T has an abundance fitness of -0.028 ± 0.073.
Work on Q21A yielded an abundance fitness of -0.16 ± 0.079.
In the case of S62T, the abundance fitness is reported as 0.014 ± 0.07.
With S62Q the abundance fitness was 0.047 ± 0.066.
With S62A the abundance fitness was -0.015 ± 0.072.
Variant F10Y has an abundance fitness of -0.518 ± 0.23.
Variant F10A has an abundance fitness of -0.803 ± 0.17.
F10G gave an abundance fitness of -1.05 ± 0.17.
In the case of F10R, the abundance fitness is reported as -0.738 ± 0.12.
With R13D the abundance fitness was -0.803 ± 0.36.
R13P showed an abundance fitness of -0.898 ± 0.27.
Work on R13T yielded an abundance fitness of -0.913 ± 0.3.
Variant R13A has an abundance fitness of -0.179 ± 0.073.
G25P showed an abundance fitness of -0.776 ± 0.15.
T39E showed an abundance fitness of 0.255 ± 0.077.
Work on T39K yielded an abundance fitness of 0.052 ± 0.17.
T39L gave an abundance fitness of -0.242 ± 0.074.
S37L gave an abundance fitness of -0.682 ± 0.076.
In the case of S37P, the abundance fitness is reported as -0.544 ± 0.099.
In the case of S37C, the abundance fitness is reported as -0.281 ± 0.071.
With L61Q the abundance fitness was -0.78 ± 0.18.
In the case of L61S, the abundance fitness is reported as -0.815 ± 0.14.
L61D gave an abundance fitness of -0.788 ± 0.28.
L61F gave an abundance fitness of -0.536 ± 0.12.
Y19Q showed an abundance fitness of -0.149 ± 0.14.
Y19E showed an abundance fitness of -0.934 ± 0.33.
With Y19K the abundance fitness was -0.674 ± 0.21.
In the case of Y19A, the abundance fitness is reported as -0.421 ± 0.19.
Variant E26W has an abundance fitness of -0.493 ± 0.12.
In the case of E26D, the abundance fitness is reported as 0.205 ± 0.13.
L17M showed an abundance fitness of -0.453 ± 0.096.
Variant N46F has an abundance fitness of -0.798 ± 0.24.
N46L showed an abundance fitness of -0.493 ± 0.089.
G33T gave an abundance fitness of -0.892 ± 0.14.
Variant G33Q has an abundance fitness of -0.212 ± 0.1.
Work on K58I yielded an abundance fitness of -0.984 ± 0.24.
K58E gave an abundance fitness of -0.738 ± 0.093.
With K58P the abundance fitness was -0.708 ± 0.17.
For N8W, the abundance fitness was -0.414 ± 0.097.
Work on N8Q yielded an abundance fitness of 0.12 ± 0.17.
In the case of N8S, the abundance fitness is reported as 0.034 ± 0.059.
Work on N8R yielded an abundance fitness of 0.188 ± 0.076.
For R14Q, the abundance fitness was -0.74 ± 0.35.
For R14H, the abundance fitness was -0.253 ± 0.22.
A7H showed an abundance fitness of -0.973 ± 0.34.
With A7E the abundance fitness was -0.235 ± 0.11.
In the case of A7G, the abundance fitness is reported as -0.885 ± 0.16.
Variant V31I has an abundance fitness of 0.027 ± 0.073.
Work on V31H yielded an abundance fitness of -0.574 ± 0.27.
With V31Y the abundance fitness was -0.339 ± 0.16.
In the case of V31K, the abundance fitness is reported as 0.131 ± 0.088.
A30C showed an abundance fitness of -0.127 ± 0.1.
A30T gave an abundance fitness of -0.23 ± 0.085.
With A30E the abundance fitness was -0.128 ± 0.073.
With A30H the abundance fitness was -0.357 ± 0.08.
For A30D, the abundance fitness was -0.457 ± 0.11.
For T20G, the abundance fitness was -0.662 ± 0.12.
Work on T20V yielded an abundance fitness of -0.789 ± 0.092.
K63S showed an abundance fitness of -0.069 ± 0.046.
In the case of K63A, the abundance fitness is reported as 0.025 ± 0.061.
Work on K63W yielded an abundance fitness of -0.589 ± 0.076.
Work on K63E yielded an abundance fitness of 0.077 ± 0.065.
In the case of A29M, the abundance fitness is reported as -0.402 ± 0.11.
With A29I the abundance fitness was -0.492 ± 0.16.
For W64V, the abundance fitness was -0.966 ± 0.25.
For C55Y, the abundance fitness was 0.012 ± 0.08.
C55H showed an abundance fitness of -0.099 ± 0.18.
C55W showed an abundance fitness of -0.14 ± 0.12.
For F51W, the abundance fitness was -0.042 ± 0.16.
F51I gave an abundance fitness of -0.1 ± 0.069.
For F51G, the abundance fitness was -0.39 ± 0.15.
Work on E4S yielded an abundance fitness of -0.157 ± 0.079.
In the case of E4Y, the abundance fitness is reported as -0.604 ± 0.24.
For E4R, the abundance fitness was -0.229 ± 0.058.
In the case of N53E, the abundance fitness is reported as 0.355 ± 0.077.
N53G gave an abundance fitness of -0.087 ± 0.074.
N53W gave an abundance fitness of -0.271 ± 0.1.
C42P showed an abundance fitness of -0.761 ± 0.092.
Work on C42A yielded an abundance fitness of 0.21 ± 0.074.
Work on C42F yielded an abundance fitness of -0.348 ± 0.081.
Work on C42M yielded an abundance fitness of 0.311 ± 0.2.
K5A showed an abundance fitness of -0.015 ± 0.045.
Variant K5S has an abundance fitness of -0.278 ± 0.044.
K5Y showed an abundance fitness of -0.236 ± 0.096.
For K5C, the abundance fitness was -0.647 ± 0.089.
K5T gave an abundance fitness of -0.21 ± 0.066.
In the case of K5H, the abundance fitness is reported as -0.135 ± 0.065.
S34H gave an abundance fitness of 0.039 ± 0.23.
S34V showed an abundance fitness of -0.084 ± 0.13.
S34W showed an abundance fitness of -0.562 ± 0.39.
S34Q showed an abundance fitness of 0.057 ± 0.057.
S34I showed an abundance fitness of -0.171 ± 0.1.
L65R showed an abundance fitness of -0.748 ± 0.11.
For L49M, the abundance fitness was 0.106 ± 0.084.
L49R gave an abundance fitness of -0.862 ± 0.12.
With L49Y the abundance fitness was -0.477 ± 0.087.
In the case of L49S, the abundance fitness is reported as -0.568 ± 0.079.
L49A showed an abundance fitness of -0.964 ± 0.19.
Variant L49W has an abundance fitness of -1.15 ± 0.43.
Work on A54S yielded an abundance fitness of 0.06 ± 0.13.
A54C showed an abundance fitness of -0.382 ± 0.33.
Variant S50A has an abundance fitness of -0.307 ± 0.051.
In the case of N23S, the abundance fitness is reported as 0.086 ± 0.053.
Work on N23L yielded an abundance fitness of -0.478 ± 0.12.
Variant N23I has an abundance fitness of -0.539 ± 0.17.
N23M showed an abundance fitness of 0.392 ± 0.071.
In the case of V24Y, the abundance fitness is reported as -0.767 ± 0.29.
In the case of V24F, the abundance fitness is reported as -0.92 ± 0.22.
Work on V24S yielded an abundance fitness of -0.681 ± 0.16.
With K16M the abundance fitness was -0.365 ± 0.13.
K16T gave an abundance fitness of -0.809 ± 0.15.
K16G showed an abundance fitness of -0.559 ± 0.088.
For K16C, the abundance fitness was -0.121 ± 0.17.
K16H showed an abundance fitness of -0.786 ± 0.37.
T40N gave an abundance fitness of -0.71 ± 0.29.
T40F showed an abundance fitness of -0.911 ± 0.25.
Variant T40M has an abundance fitness of -0.431 ± 0.38.
Variant T40G has an abundance fitness of -0.528 ± 0.1.
Work on T40D yielded an abundance fitness of 0.308 ± 0.2.
Work on T40I yielded an abundance fitness of -0.642 ± 0.43.
In the case of T40S, the abundance fitness is reported as -0.348 ± 0.091.
Q48Y showed an abundance fitness of -0.79 ± 0.41.
Q48H gave an abundance fitness of -0.66 ± 0.2.
Work on A59R yielded an abundance fitness of -0.059 ± 0.044.
Variant T22K has an abundance fitness of 0.267 ± 0.095.
T22L showed an abundance fitness of -0.156 ± 0.062.
Work on T22W yielded an abundance fitness of 0.18 ± 0.16.
For I15S, the abundance fitness was -0.272 ± 0.055.
In the case of I15T, the abundance fitness is reported as -0.13 ± 0.073.
Variant L3H has an abundance fitness of -0.611 ± 0.18.
With L3D the abundance fitness was -0.794 ± 0.22.
In the case of L3W, the abundance fitness is reported as -0.715 ± 0.16.
L3M showed an abundance fitness of -0.469 ± 0.13.
Variant E9P has an abundance fitness of -0.917 ± 0.31.
Work on E9K yielded an abundance fitness of -0.323 ± 0.091.
Variant F36L has an abundance fitness of -0.393 ± 0.049.
F36C gave an abundance fitness of -0.526 ± 0.33.
Variant F36A has an abundance fitness of -0.496 ± 0.093.
F36H showed an abundance fitness of -0.747 ± 0.41.
